From the DeepSol protein solubility set

Assay: soluble on expression in E. coli; label from the status in PepcDB or PDB records

Sequence | soluble on expression in E. coli
MASHWMIYGANGYTGRLVAEQAQREGLTPLLGGRNPAALHALGSQLGLECRVFDLGDPQACREALDQVKVVAHCAGPFSATSTPMIAACRAAGTHYVDITGEIAVFEQAHAGDAEAREAGIVVCPGVGFDVIPTDCLAACLKEALPDAQRLALGFDTGSGLSTGTAKTSVEGLKFGGKIRENGRLRDVPLGYKRRDIDFGRGLRHAVTIPWGDVATAYYSTGIPDIEVYLPAPPLLALGMRLIDPLRPLLGRQRVQDWLKGQVDKRIAGPDQAARERLRTWVWGEARNARGERRTARLETANVYDLTLHGVLLAVRHLLDYQGPGGYFTPSRLLGARCVESLPGSGRITVIG | not soluble
MASIKKVYRGMKNGAETINDDLEAINSELTSGGNVVHKTGDETIAGKKTFTGNVEVNGSLTLPTKSWSGELGGGIILSLRKKGTTVEYSIGGEISSSILANSNLVNRSVPNEFCPRNRCSLVGHMVGGWNAFHIDIPSSGVCQWFGPTASSGTPRGTGTYPIDHHHHHH | soluble
MASIPTVNVIGAGLAGSEAAWHIANMGVNVRLYEMRPNKMTPAHHTAQFAELVCTNSLRANQLANAAGLLKAEMRQMDSIVMQAAEHHAVPAGGALAVDRDTFSAEITAAITALPNVEIINEEITSLPDGITVVATGPLTAASLAKSIQAFNDEDDLHFFDAAAPILTKDSIDMDKVYLKSRYDRGEAAYLNCPMTEAEFDVFYDALIHAEMAEAHDFENSDVFEGCMPIEVMAQRGRQTMLFGPLKPVGLEDPKTGKQPFAVVQLRQDDAAGDLYNIVGFQTHLKWGEQKRVFSLIPGLENVEFVRYGVMHRNTFMKSPKLLTPTYQTQQRPDLFFAGQMTGVEGYIESAASGIVAGTNAARLALGLEPVVFPTDTMMGAMAHYITHTSASNFQPMNANFGIMPKLKQRIRDKRERNTAISERALADLTTFKDETLTVNNLEHHHHHH | soluble
MASKTIKIMPVGDSCTEGMGGGEMGSYRTELYRLLTQAGLSIDFVGSQRSGPSSLPDKDHEGHSGWTIPQIASNINNWLNTHNPDVVFLWIGGNDLLLNGNLNATGLSNLIDQIFTVKPNVTLFVADYYPWPEAIKQYNAVIPGIVQQKANAGKKVYFVKLSEIQFDRNTDISWDGLHLSEIGYKKIANIWYKYTIDILRALAGETQLEHHHHHH | soluble
MASMGVPALFRLLSRKFAKVITPVIEAPTEKLPDGTEIEPDLSLPNPNGVECDNLYLDMNGIVHPCSHPEDRPAPETEDEMMVAVFEYTDRILAMVRPRQLLFIAIDGVAPRAKMNQQRSRRFRSSREAALKEEELQAFIEEAKQQGIPIDENATKKKSWDSNCITPGTPFMDTLAKSLRYYIINKLNSDPCWRNVRFILSDASVPGEGEHKIMEFIRSQRVKPEYDPNTHHVVYGLDADLIMLGLATHEPHFRVLREDVFFQQGSTKKTKEERLGIKRLDDVSETNKVPVKKPFIWLNVSILREYLEVELYVPNLPFPFDLERAIDDWVFFIFFVGNDFLPHLPSLDIRDGAVERLTEIWRASLPHMGGYLTLDGSVNLARAEVILSAVGNQEDDIFKRLKQQEDRRNENYRRRQQRESNQESESYVDNVVIQRSVETQSTEVVTSSKSTSVDTKPPKKTQKIDAPAPVDLVNLSEKTSNRSLGATNRELINNRAANRLGLSREAAAVSSVNKLAASALKAQLVSNETLQNVPLEDSIASSSAYEDTDSIESSTPVVHPIDTKVSNVGQKRKAPDSTEENENTDTVRLYEPGYRERYYEQKFHISPDEPEKIREAVKHYVHGLCWVLLYYYQGCPSWTWYYPYHYAPFAADFKDLASIDVKFELNQPFKPYEQLLGVLPAASKNNLPEKLQTLMTDENSEIIDFYPENFTIDLNGKKFEWQGVALLPFIDENRLLNAVSKIYPQLTEEESKRNEDGSTLLFISEHHPMFSELVKQLYSKKRQGKPLKLSGKMAHGLFGKVNTNDSVIPNVSVQCPIDVTSADALQKYGSIDDNQSISLVFEVPKSHFVHKSMLLRGVKMPNRVLTPEDINQVRAERSFSSRRNNGNSAAALEHHHHHH | soluble
MASPPPFHSQKLPGEYFRYKGVPFPVGLYSLESISLAENTQDVRDDDIFIITYPKSGTTWMIEIICLILKEGDPSWIRSVPIWERAPWCETIVGAFSLPDQYSPRLMSSHLPIQIFTKAFFSSKAKVIYMGRNPRDVVVSLYHYSKIAGQLKDPGTPDQFLRDFLKGEVQFGSWFDHIKGWLRMKGKDNFLFITYEELQQDLQGSVERICGFLGRPLGKEALGSVVAHSTFSAMKANTMSNYTLLPPSLLDHRRGAFLRKGVCGDWKNHFTVAQSEAFDRAYRKQMRGMPTFPWDEDPEEDGSPDPEPSPEPEPKPSLEPNTSLEREPRPNSSPSPSPGQASETPHPRPS | soluble
